Legend:
[1] = target: Grappling Hook Protein A (GhpA), assembled as the grappling hook (Aureispira sp. CCB-QB1); test: cryo-EM structure
[2] = target: Grappling Hook Protein A (GhpA), assembled as the grappling hook (Aureispira sp. CCB-QB1); test: cryo-electron tomography with subtomogram averaging

stoichiometry N [1]: 7
stoichiometry N [2]: 7
Substance: Grappling Hook Protein A (GhpA), assembled as the grappling hook (natural protein)
